Results from PMC6424596 (Current biology : CB, 2019).

Target: T1, Cdr2-flag (S. pombe, UniProt P87050 1-775)
T1 sequence (looked up): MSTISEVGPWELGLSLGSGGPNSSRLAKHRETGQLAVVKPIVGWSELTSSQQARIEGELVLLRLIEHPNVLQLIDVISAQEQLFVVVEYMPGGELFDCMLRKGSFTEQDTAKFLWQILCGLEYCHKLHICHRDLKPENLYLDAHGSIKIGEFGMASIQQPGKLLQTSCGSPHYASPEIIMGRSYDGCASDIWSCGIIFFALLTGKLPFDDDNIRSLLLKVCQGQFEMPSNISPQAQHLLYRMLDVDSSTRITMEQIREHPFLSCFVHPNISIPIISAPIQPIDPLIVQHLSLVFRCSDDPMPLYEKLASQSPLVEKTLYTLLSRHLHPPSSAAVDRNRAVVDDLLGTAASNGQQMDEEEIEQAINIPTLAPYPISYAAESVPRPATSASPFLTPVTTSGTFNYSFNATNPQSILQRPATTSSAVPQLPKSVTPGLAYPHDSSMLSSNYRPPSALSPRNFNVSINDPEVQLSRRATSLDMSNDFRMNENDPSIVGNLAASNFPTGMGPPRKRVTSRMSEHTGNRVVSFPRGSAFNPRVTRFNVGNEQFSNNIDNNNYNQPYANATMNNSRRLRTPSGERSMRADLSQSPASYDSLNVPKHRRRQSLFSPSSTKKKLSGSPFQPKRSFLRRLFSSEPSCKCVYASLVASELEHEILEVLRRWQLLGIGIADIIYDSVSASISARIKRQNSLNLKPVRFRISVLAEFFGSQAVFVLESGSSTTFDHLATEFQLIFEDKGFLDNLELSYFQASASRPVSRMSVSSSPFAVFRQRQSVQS
Assay: co-IP

B1: Mid1–9A-myc13 (natural protein, S. pombe, UniProt P78953 1-920, looked up)
chain: MKEQEFSYREAKDVSLDSKGLENSFLSSPNREKTPLFFEGNSNETSGYDQTKNFTHGDGDMSLGNLSELNVATDLLESLDLRSMYMHGYGHLDSSFSSQHSPDNRKRMSATSVFKRINSEEEGRIPALTYSAGTMNSTSSSTASLKGADIVADYETFNPDQNLAELSFDRSKSSRKRAVEVAEFSRAKTMSPLEYTVQHPYQSHNELSTNPARARAGAVPNLARIPADVKPVPPAHLSASSTVGPRILPSLPKDTTEDNPALERVETTASLDMDYKPLEPLAPIQEAPVEDTSEPFSSVPEATLDDSDISTESLRKKVLAKMEAKRISAGSSYASTLRKVYDFSELSLPTNGKDYDELYLQSSRNSEPEISTIINDSLQQENMDEDISATSIPKSQAAYGHGSVTYHEVPRYNLTSASVGYSISSQRGRIKASSTIDNLSAILSSEDLRHPAMQPVPGTKRTYANYCENEPNKSSQSLVSSESHNVEGWNYSETGTVGFYDPSAEISASIDELRQSTPVARDSELLSRAHAFDLNRLDLPSQDKSTSYEVPNGTENQSPRPVTSLGFVNETFFEEKPKAPLPLGRFYIHLNSILNISISEVHSPIKIIVNTPTQNMQLPWQAVNGNNRLDHDFAFHVDDNFKVSFMFLDIPIEDKSNGSKGVSATKDVSNGKPAETKSKARKFFDKLFNRRKKRKLNKAAAVENSKAKKSVVIKKVSGTATLNLGNVKDSCFGKAFNVEIPIISRGFLEAIPVKINSIGKRTLGNLTLTCLYIPELSVPEQELPFTLEQATMDLRHVRSNYLYNEGYLYRLEDSSIRRRFVVLRSKQLNFYAEKGGQYLDTFQLSKTVVSIPMVNFSEAVSNLGLVAGILATSVDRRHVQLFADSKKVCQKWLQVMNSRSFALDRGTEKLWLQEYVNFMA
fold co-immunoprecipitated against Mid1-myc13: ~2 fold
